Results from patent US20260274944A1.

Target: RAGE (the receptor of interest on CHO cell lines; human or mouse not told)
Test: cell-based or functional assay

- cellular delivery of FLuc mRNA (luminescence), fold against control LNP: 3 to 5 fold
B1: VHH 5-LNP (protein)
VHH: EVQLVESGGGLVQPGGSLRLSCAASGTIFSLNPMGWYRQAPGKQLELVALISDSGTANYADFVRGRFTISRDTTKKTLYLQMNSLEPEDTAVYYCRSTFAAGNFYWGQGTQVTVSS
modifications: here or on the partner: BCN (bicyclo[6.1.0]nonyne) selectively conjugated to the VHH and clicked to DOPE-PEG2000-N3 on the surface of a lipid nanoparticle loaded with luciferase mRNA
